In FireProtDB (doi:10.1016/j.csbj.2015.03.010):

B1: Arabinogalactan endo-beta-1,4-galactanase, P48842 (parent)
chain: MFASLLLAALPLLTHAALTYRGADISSLLLLEDEGYSYKNLNGQTQALETILADAGINSIRQRVWVNPSDGSYDLDYNLELAKRVKAAGMSLYLDLHLSDTWADPSDQTTPSGWSTTDLGTLKWQLYNYTLEVCNTFAENDIDIEIISIGNEIRAGLLWPLGETSSYSNIGALLHSGAWGVKDSNLATTPKIMIHLDDGWSWDQQNYFYETVLATGELLSTDFDYFGVSYYPFYSASATLASLKTSLANLQSTYDKPVVVVETNWPVSCPNPAYAFPSDLSSIPFSVAGQQEFLEKLAAVVEATTDGLGVYYWEPAWIGNAGLGSSCADNLMVDYTTDEVYESIETLGEL

Variants of: B1
Settings: Aspergillus aculeatus; pH 4.5; Thermal; DSC; sodium acetate buffer 50 mM; transition: 2; reversible: no; structure 1FHL; whole UniProt chain shown

Row | Variant | Tm | change of melting temperature, mutant - wild type (higher = more stable)
1 | D74N | 61.5 °C | 0.65 °C
2 | S201D Q204T | 61 °C | 0.11 °C
3 | D198N | 61.4 °C | 0.53 °C
4 | G322A | 62 °C | 1.1 °C
5 | Y311F | 61.2 °C | 0.34 °C
6 | G120D A172R | 60.7 °C | -0.18 °C
